US20060234291A1 (MODPRO, published 2006)
Non-standard residues stand in square brackets, D forms with d. Nle = CCCC[C@H](N)C(=O)O; Orn = NCCC[C@H](N)C(=O)O

B1: LA-42h (peptide)
chain: Ac-NAAD[Nle]EAKIRHLAEK[Nle]AARGPVDAAQ[Nle]AEQLAKKFEAFARAG-NH2
modifications: also: two monomers associate antiparallel into four-helix bundle (dimer)
notes: two monomers associate antiparallel into a four-helix bundle

Legend:
[1] = molecular target: the molecule itself; experiment: 1H NMR NOESY, self-association
Experimental: The secondary and tertiary structures of LA-42h were investigated by ¹H-NMR spectroscopy. The ¹H-NMR spectrum of LA-42h was assigned from the TOCSY and NOESY spectra recorded in H₂O:D₂O (90:10 v/v) containing 4 vol % of TFE-d₃ at 308 K using methods described in detail previously [S. Olofsson, L. Baltzer, Folding & Design 1996, 347-356]. Most of the spin systems of the amino acids were identified from the αH—NH region in the TOCSY spectrum and the sequential assignments of residues 5 to 19 and 23 to 41were obtained from the NH—NH region in the NOESY spectrum. Due to the cis-trans equilibrium of Pro21, an extra set of resonances with low intensity from the amino acids near the proline in the loop region was identified. The aH chemical shifts are diagnostic of secondary structure formation, and the measured values were compared to tabulated values for random coil conformations [D. S. Wishart, B. D. Sykes, F. M. Richards, J. Mol. Biol. 1991, 222, 311-333]. From their upfield shifts relative to the random coil values, two helical segments were identified in the sequence of LA-42h from […] Nle16 and from Ala25 to Arg40. A loop region was also assigned from the downfield shifts, or absence of deviation relative to random coil conformation, of the α protons. […]

[2] = molecular target: the molecule itself; experiment: 1H NMR NOESY and CD spectroscopy, self-association
Text: This is because NOEs only arise between nuclei separated by less than 5 Å [K. Wüthrich, NMR of proteins and nucleic acids, John Wiley & Sons, Inc., 1986] and the distances between Phe35 and Nle16, and between N15 and Lys19, are too long to give rise to NOEs within the monomer and too long to give rise to NOEs in a parallel dimer. […] The inventor concludes that KA-I forms an antiparallel dimer of helix-loop-helix hairpin motifs, and that residues in a and d positions are positioned in the hydrophobic core, whereas all other residues are solvent exposed.
CD spectra were recorded on a Jasco J-715 CD spectropolarimeter, in 0.1, 0.5, or 1 mm cuvettes in the interval from 280-190 nm at room temperature. Each spectrum is an average of six scans and the background was subtracted from the spectrum before the mean residue ellipticity at 222 nm was measured. A 1 mM stock peptide solution was prepared by dissolving the peptide in buffer, under the assumption that the lyophilized peptide contains 25% water. The pH was adjusted by addition of small amounts of 0.1 M-1 M NaOH or HCl. For the concentration dependent studies the stock peptide solution was diluted to the desired concentrations by pipetting. […] The concentration of the stock solution for the concentration dependent measurement was determined by quantitative amino acid analysis. […]

Protein	binding result [1]	binding result [2]
B1	binds	
Ac-NAAD[Nle]EAAIKALAEK[Nle]AAKGPVDAAQ[Nle]AEQLAK[Orn]FEAFARAG-NH2 (also: two monomers associate antiparallel into four-helix bundle (dimer)) [KA-I]		binds
